45 molecules from publication PMC9352680, “A comprehensive thermodynamic model for RNA binding by the Saccharomyces cerevisiae Pumilio protein PUF4” can be followed below.

T1: PUF4 RNA-binding domain (Saccharomyces cerevisiae, UniProt P25339 537-888)
T1 sequence: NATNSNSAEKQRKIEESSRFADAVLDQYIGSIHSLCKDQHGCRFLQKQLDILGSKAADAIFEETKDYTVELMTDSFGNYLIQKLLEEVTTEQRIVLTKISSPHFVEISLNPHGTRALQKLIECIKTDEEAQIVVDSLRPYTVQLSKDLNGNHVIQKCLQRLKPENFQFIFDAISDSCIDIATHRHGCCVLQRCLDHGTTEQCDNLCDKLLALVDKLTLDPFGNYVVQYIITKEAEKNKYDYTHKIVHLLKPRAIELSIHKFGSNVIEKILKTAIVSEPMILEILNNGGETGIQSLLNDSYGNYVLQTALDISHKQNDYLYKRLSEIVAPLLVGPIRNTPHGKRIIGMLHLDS

The target of the data set is T1, PUF4 RNA-binding domain. Nature of the data set: Mg; RNA-MaP; 20 mM Na-HEPES pH 7.4, 30 mM KOAc, 0.75 mM MgCl2, 0.1% Tween-20, 5% glycerol, 0.1 mg/mL BSA, 2 mM DTT; 25 C; 0.0125-409.6 nM protein. The conditions noted are these: tags: N-His6-TEV cleaved; C-SNAP kept, Cy3B-labelled; label: tethered on chip by stalled RNA polymerase.
ACAAACUGACACUAUAGAACAAAC (ssRNA) [Id_ii_S3_P3E.4_K3.3_C3.2_[C-2T]_[T-1G]_H3.3_A3.1_F3.1_T3.2_[T9G]] came in with a Kd of 1880 nM.

With ACAAACCAUAUAUAUAGCACAAAC (ssRNA) [Id_ii_S3_P3E.3_K3.2_C3.2_[T-1A]_H3.2_A3.1_F3.1_T3.2_[T9G]_[A10C]], binding was put at a Kd of 328 nM.

Consider ACAAACCAUAUAUAUAAGACAAAC (ssRNA) [Id_ii_S3_P3E.3_K3.2_C3.2_[T-1A]_H3.2_A3.1_F3.1_T3.2_[T9A]_[A10G]], for which the Kd is 546 nM.

Consider ACAAACGUACACUAUAACACAAAC (ssRNA) [Id_ii_S3_P3E.4_K3.3_C3.2_[C-2G]_H3.3_A3.1_F3.1_T3.2_[T9A]_[A10C]], for which the Kd came to 100 nM.

For ACAAACGCACACUAUAGGACAAAC (ssRNA) [Id_ii_S3_P3E.4_K3.3_C3.2_[C-2G]_[T-1C]_H3.3_A3.1_F3.1_T3.2_[T9G]_[A10G]], the Kd was greater than 2300 nM.

Consider ACAAACGGACACUAUAAAACAAAC (ssRNA) [Id_ii_S3_P3E.4_K3.3_C3.2_[C-2G]_[T-1G]_H3.3_A3.1_F3.1_T3.2_[T9A]], for which the Kd was greater than 2300 nM.

In the case of ACAAACCCUAUAUAUAUGACAAAC (ssRNA) [Id_ii_S3_P3E.3_K3.2_C3.2_[T-1C]_H3.2_A3.1_F3.1_T3.2_[A10G]], the affinity, expressed as Kd, was 769 nM.

With UCUCUUUGUACUAUUCUCUCUU (ssRNA) [Ib_S1_P5E.1_K5.1_C5.1_H5.1_A5.1_[T5C]_F5.1_[A10C]_T5.1], the Kd amounted to 12.5 nM.

Turning to ACAAACCGUAUAUAUAAAACAAAC (ssRNA) [Id_ii_S3_P3E.3_K3.2_C3.2_[T-1G]_H3.2_A3.1_F3.1_T3.2_[T9A]], the dissociation constant Kd turned out to be 697 nM.

Turning to ACAAACCUUAUAUAUAGCACAAAC (ssRNA) [Id_ii_S3_P3E.3_K3.2_C3.2_H3.2_A3.1_F3.1_T3.2_[T9G]_[A10C]], the Kd came to 144 nM.

In turn, ACAAACAUUAUAUAUAUAACAAAC (ssRNA) [Id_ii_S3_P3E.3_K3.2_C3.2_[C-2A]_H3.2_A3.1_F3.1_T3.2] showed a dissociation constant (Kd) of 462 nM.

The molecule UCUCUUUGUAUUUUAAUCUCUU (ssRNA) [Ib_S1_P5E.1_K5.1_C5.1_H5.1_A5.1_[A7T]_F5.1_[T9A]_T5.1] returned a Kd of 3.42 nM.

Molecule ACAAACCUUAUAUAUAUUACAAAC (ssRNA) [Id_ii_S3_P3E.3_K3.2_C3.2_H3.2_A3.1_F3.1_T3.2_[A10T]] had a Kd of 28.1 nM.

ACAAACGGACACUAUACUACAAAC (ssRNA) [Id_ii_S3_P3E.4_K3.3_C3.2_[C-2G]_[T-1G]_H3.3_A3.1_F3.1_T3.2_[T9C]_[A10T]] yielded a Kd of 2160 nM.

For the molecule ACAAACGCACACUAUACAACAAAC (ssRNA) [Id_ii_S3_P3E.4_K3.3_C3.2_[C-2G]_[T-1C]_H3.3_A3.1_F3.1_T3.2_[T9C]], the Kd is greater than 2300 nM.

ACAAACGAACACUAUAAUACAAAC (ssRNA) [Id_ii_S3_P3E.4_K3.3_C3.2_[C-2G]_[T-1A]_H3.3_A3.1_F3.1_T3.2_[T9A]_[A10T]] had a Kd greater than 2300 nM.

ACAAACCUUAUAUAUACCACAAAC (ssRNA) [Id_ii_S3_P3E.3_K3.2_C3.2_H3.2_A3.1_F3.1_T3.2_[T9C]_[A10C]] yielded a Kd of 845 nM.

Turning to ACAAACGGACACUAUAUUACAAAC (ssRNA) [Id_ii_S3_P3E.4_K3.3_C3.2_[C-2G]_[T-1G]_H3.3_A3.1_F3.1_T3.2_[A10T]], the affinity, expressed as Kd, was 1380 nM.

On to UCUCUUUGUAGUAUUGUCUCUU (ssRNA) [Ic_S1_P5E.1_K5.1_C5.1_H5.1_A5.1_[T5G]_F5.1_[A10G]_T5.1], for which the Kd stood at 81.1 nM.

Molecule ACAAACCUUAUAUAUAUCACAAAC (ssRNA) [Id_ii_S3_P3E.3_K3.2_C3.2_H3.2_A3.1_F3.1_T3.2_[A10C]] yielded a Kd of 396 nM.

Turning to ACAAACCAUAUAUAUAACACAAAC (ssRNA) [Id_ii_S3_P3E.3_K3.2_C3.2_[T-1A]_H3.2_A3.1_F3.1_T3.2_[T9A]_[A10C]], the Kd was 724 nM.

Turning to ACAAACGUACACUAUACCACAAAC (ssRNA) [Id_ii_S3_P3E.4_K3.3_C3.2_[C-2G]_H3.3_A3.1_F3.1_T3.2_[T9C]_[A10C]], the Kd was found to be 105 nM.

In the case of ACAAACGUACACUAUAUCACAAAC (ssRNA) [Id_ii_S3_P3E.4_K3.3_C3.2_[C-2G]_H3.3_A3.1_F3.1_T3.2_[A10C]], the Kd turned out to be 51 nM.

ACAAACCCUAUAUAUAUUACAAAC (ssRNA) [Id_ii_S3_P3E.3_K3.2_C3.2_[T-1C]_H3.2_A3.1_F3.1_T3.2_[A10T]]: the Kd amounted to 32.7 nM.

In turn, ACAAACCGUAUAUAUAGAACAAAC (ssRNA) [Id_ii_S3_P3E.3_K3.2_C3.2_[T-1G]_H3.2_A3.1_F3.1_T3.2_[T9G]] came in with a Kd of 366 nM.

As to UCUCUUUGUAAUAUUGUCUCUU (ssRNA) [Ic_S1_P5E.1_K5.1_C5.1_H5.1_A5.1_[T5A]_F5.1_[A10G]_T5.1], binding was put at a Kd of 14.9 nM.

In the case of ACAAACCCUAUAUAUACUACAAAC (ssRNA) [Id_ii_S3_P3E.3_K3.2_C3.2_[T-1C]_H3.2_A3.1_F3.1_T3.2_[T9C]_[A10T]], binding was put at a Kd of 45.5 nM.

In turn, ACAAACGAACACUAUAGCACAAAC (ssRNA) [Id_ii_S3_P3E.4_K3.3_C3.2_[C-2G]_[T-1A]_H3.3_A3.1_F3.1_T3.2_[T9G]_[A10C]] yielded a Kd greater than 2300 nM.

Molecule ACAAACCAUAUAUAUAAAACAAAC (ssRNA) [Id_ii_S3_P3E.3_K3.2_C3.2_[T-1A]_H3.2_A3.1_F3.1_T3.2_[T9A]] gave a Kd of 1420 nM.

Consider ACAAACGAACACUAUACAACAAAC (ssRNA) [Id_ii_S3_P3E.4_K3.3_C3.2_[C-2G]_[T-1A]_H3.3_A3.1_F3.1_T3.2_[T9C]], for which the Kd was greater than 2300 nM.

ACAAACCGUAUAUAUAAGACAAAC (ssRNA) [Id_ii_S3_P3E.3_K3.2_C3.2_[T-1G]_H3.2_A3.1_F3.1_T3.2_[T9A]_[A10G]] had a Kd of 796 nM.

Regarding ACAAACUGACACUAUACCACAAAC (ssRNA) [Id_ii_S3_P3E.4_K3.3_C3.2_[C-2T]_[T-1G]_H3.3_A3.1_F3.1_T3.2_[T9C]_[A10C]], the Kd was greater than 2300 nM.

For ACAAACCCUAUAUAUACCACAAAC (ssRNA) [Id_ii_S3_P3E.3_K3.2_C3.2_[T-1C]_H3.2_A3.1_F3.1_T3.2_[T9C]_[A10C]], the Kd amounted to 614 nM.

ACAAACCUUAUAUAUAUAACAAAC (ssRNA) [Id_ii_S3_P3E.3_K3.2_C3.2_H3.2_A3.1_F3.1_T3.2]: the Kd amounted to 500 nM.

In the case of ACAAACGAACACUAUAACACAAAC (ssRNA) [Id_ii_S3_P3E.4_K3.3_C3.2_[C-2G]_[T-1A]_H3.3_A3.1_F3.1_T3.2_[T9A]_[A10C]], the Kd is greater than 2300 nM.

The molecule ACAAACUGACACUAUACUACAAAC (ssRNA) [Id_ii_S3_P3E.4_K3.3_C3.2_[C-2T]_[T-1G]_H3.3_A3.1_F3.1_T3.2_[T9C]_[A10T]] showed a Kd greater than 2300 nM.

In the case of ACAAACCUUAUAUAUAACACAAAC (ssRNA) [Id_ii_S3_P3E.3_K3.2_C3.2_H3.2_A3.1_F3.1_T3.2_[T9A]_[A10C]], binding was put at a Kd of 513 nM.

As for ACAAACCUUAUAUAUAUGACAAAC (ssRNA) [Id_ii_S3_P3E.3_K3.2_C3.2_H3.2_A3.1_F3.1_T3.2_[A10G]], binding was put at a Kd of 632 nM.

The molecule ACAAACGCACACUAUAAUACAAAC (ssRNA) [Id_ii_S3_P3E.4_K3.3_C3.2_[C-2G]_[T-1C]_H3.3_A3.1_F3.1_T3.2_[T9A]_[A10T]] gave a Kd greater than 2300 nM.

With ACAAACCCUAUAUAUAGUACAAAC (ssRNA) [Id_ii_S3_P3E.3_K3.2_C3.2_[T-1C]_H3.2_A3.1_F3.1_T3.2_[T9G]_[A10T]], the Kd worked out at 392 nM.

For ACAAACGCACACUAUAAGACAAAC (ssRNA) [Id_ii_S3_P3E.4_K3.3_C3.2_[C-2G]_[T-1C]_H3.3_A3.1_F3.1_T3.2_[T9A]_[A10G]], the Kd is greater than 2300 nM.

Molecule ACAAACGAACACUAUACCACAAAC (ssRNA) [Id_ii_S3_P3E.4_K3.3_C3.2_[C-2G]_[T-1A]_H3.3_A3.1_F3.1_T3.2_[T9C]_[A10C]] displayed a Kd greater than 2300 nM.

For the molecule UCUCUUUGUAGUAUUAUCUCUU (ssRNA) [Ia_S1_P5E.1_K5.1_C5.1_H5.1_A5.1_[T5G]_F5.1_T5.1], the Kd is 30 nM.

Molecule ACAAACGAACACUAUAUCACAAAC (ssRNA) [Id_ii_S3_P3E.4_K3.3_C3.2_[C-2G]_[T-1A]_H3.3_A3.1_F3.1_T3.2_[A10C]] returned a Kd greater than 2300 nM.

ACAAACCGUAUAUAUACCACAAAC (ssRNA) [Id_ii_S3_P3E.3_K3.2_C3.2_[T-1G]_H3.2_A3.1_F3.1_T3.2_[T9C]_[A10C]]: binding was characterised by a dissociation constant (Kd) of 1540 nM.

One may read the Kd as the constant that tells how readily two partners part at equilibrium. High values mean weaker binding, low ones tighter binding.
